Data as given in publication PMC5484120 (Marine Drugs, 2017).
Where no end group is shown, it is not given here. The star is where a group is joined. Cam = NC(=O)C*

Key:
N-type Ca^2+ channel = conditions: cited from earlier work
α9α10 nAChR = conditions: cited from earlier work
[1] = tested on: rat models of neuropathic pain; conditions: in vivo; cited from earlier work
[2] = target: O-conotoxin GeXXVIIA, native form (disulfide-linked homodimer) (Conus generalis); test: mass spectrometry before and after reduction with DTT
[3] = target: rodent α1β1εδ nicotinic acetylcholine receptor (rat α1, β1, δ; mouse ε) (rat | mouse) (UniProt P25108)
[4] = target: human α9α10 nicotinic acetylcholine receptor (human) (UniProt Q9UGM1)

ω-conotoxin MVIIA
N-type Ca2+ channel inhibition (in words) (N-type Ca^2+ channel): selective N-type Ca^2+ channel inhibitor

Vc1.1
IC50 (α9α10 nAChR): 19 nM
pain relief in rat models of neuropathic pain [1]: long lasting relief in rat models of neuropathic pain

O-conotoxin GeXXVIIA, native form (disulfide-linked homodimer) (peptide)
stoichiometry N [2]: 2

GeXXVIIA-L-Nter (N-terminal fragment of GeXXVIIA-L after Asp-N digestion) (peptide)
IC50 of inhibition of ACh-evoked current of the receptor in Xenopus oocytes [3]: 2190 nM
IC50 of inhibition of ACh-evoked current of the receptor in Xenopus oocytes [4]: 222 nM

ALMSTGTNYRLLKTC(Cam)RGSGRYC(Cam)RSPYDC(Cam)RRRYC(Cam)RRISDAC(Cam)V [GeXXVIIA-L (disulfide-free linear peptide of GeXXVIIA, Cys residues alkylated with iodoacetamide)]
IC50 of inhibition of ACh-evoked current of the receptor in Xenopus oocytes [3]: 774 nM
